Results from PMC5614898.

Target: T1, FOXA2-DBD without wing 2 (human, UniProt Q9Y261 157-239)
T1 sequence: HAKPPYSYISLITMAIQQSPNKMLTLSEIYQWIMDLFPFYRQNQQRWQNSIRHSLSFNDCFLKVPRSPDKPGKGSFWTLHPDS
Experiment: ITC

B1: DBE2 (Daf-16 family binding element 2) (dsDNA)
DNA 1: TGCAAAATGTAAACAAGACT
DNA 2: AGTCTTGTTTACATTTTGCA
Q: How did the Kd turn out when B1 was run?
A: The Kd was 3.5 ± 0.3 µM.
